Where a chain is given by its changes, count along the chain named.
B1: PaB670010 scFv (scFv, V domains shown)
VH: EVQLLESGGGLVQPGGSLRLSCAASGFTFSSYAMNWVRQAPGKGLEWVSTISYSGSLIHYADSVKGRFTISRDNSKNTLYLQMNSLRAEDTAVYYCARINNDPMDVWGQGTLVTVSS
VL: SIELTQPPSVSVSPGQTASITCSGDNLGKKYVQWYQQKPGQSPVLVIYDDSNRPSGIPERFSGSNSGNTATLTISGTQAMDEADYYCQTWDGNPTTGETNVFGGGTKLTVL
notes: purified scFv; also called ZZ1DRB-B08
B2: PaB670067 scFv (scFv, V domains shown)
VH: B1 VH with H59S
VL: B1 VL with Q88H, D91H, G92H, N93H, T96H, T99H
notes: purified scFv; also called ZZ1KXE-A05
B3: PaB670075 scFv (scFv, V domains shown)
VH: B1 VH with H59S
VL: B1 VL with T89H, P94H, T95H, T96H, V101H
notes: purified scFv; also called ZZ1NHH-A05
B4: PaB670089 scFv (scFv, V domains shown)
VH: B1 VH with S54H, L57H, H59S, Y60H, S63H, K65H
VL: B1 VL
notes: purified scFv; also called ZZ1ODR-C05
B5: PaB670068 scFv (scFv, V domains shown)
VH: B1 VH with H59S
VL: B1 VL with N93H, P94H, T96H, T99H, N100H
notes: purified scFv; also called ZZ1KXE-B01
B6: PaB670081 scFv (scFv, V domains shown)
VH: B1 VH with Y53H, S56H, L57H, H59S, Y60H, A61H, V64H, K65H
VL: B1 VL
notes: purified scFv; also called ZZ1OZA-C01
B7: PaB670066 scFv (scFv, V domains shown)
VH: B1 VH with H59S
VL: B1 VL with Q88H, T89H, D91H, P94H, T95H, V101H
notes: purified scFv; also called ZZ1KX6-D05
B8: PaB670077 scFv (scFv, V domains shown)
VH: B1 VH with H59S
VL: B1 VL with Q88H, T89H, D91H, N93H, P94H, V101H
notes: purified scFv; also called ZZ1OZJ-C11
B9: PaB670084 scFv (scFv, V domains shown)
VH: B1 VH with Y53H, S56H, Y60H, V64H
VL: B1 VL
notes: purified scFv; also called ZZ1PXA-A05
B10: PaB670070 scFv (scFv, V domains shown)
VH: B1 VH with H59S
VL: B1 VL with G92H, P94H, T95H, E98H
notes: purified scFv; also called ZZ1KXE-D06
B11: PaB670087 scFv (scFv, V domains shown)
VH: B1 VH with S54H, L57H, H59S, S63H, V64H, G66H
VL: B1 VL
notes: purified scFv; also called ZZ1ODR-B05
B12: PaB670088 scFv (scFv, V domains shown)
VH: B1 VH with S56H, S63H, V64H, K65H
VL: B1 VL
notes: purified scFv; also called ZZ1ODR-B11
B13: PaB670082 scFv (scFv, V domains shown)
VH: B1 VH with Y53H, G55H, H59S, D62H, K65H
VL: B1 VL
notes: purified scFv; also called ZZ1OZA-D02
B14: PaB670034 scFv (scFv, V domains shown)
VH: B1 VH with H59S
VL: B1 VL with T96H
notes: purified scFv; also called ZZ1IGF-B11
B15: PaB670045 scFv (scFv, V domains shown)
VH: B1 VH with H59S, N100H, N101H
VL: B1 VL
notes: purified scFv; also called ZZ1KX3-F01
B16: PaB670080 scFv (scFv, V domains shown)
VH: B1 VH with H59S
VL: B1 VL with N93H, P94H, T95H, V101H
notes: purified scFv
B17: PaB670090 scFv (scFv, V domains shown)
VH: B1 VH with S54H, S56H, L57H, H59S, Y60H, S63H, G66H
VL: B1 VL
notes: purified scFv; also called ZZ1ODR-F02
B18: PaB670083 scFv (scFv, V domains shown)
VH: B1 VH with S52H, Y53H, S56H, I58H, H59S, Y60H, S63H
VL: B1 VL
notes: purified scFv; also called ZZ1OZB-H05
B19: PaB670078 scFv (scFv, V domains shown)
VH: B1 VH with H59S
VL: B1 VL with Q88H, T89H, D91H, N93H, T95H, T99H
notes: purified scFv; also called ZZ1OZJ-G03
B20: PaB670071 scFv (scFv, V domains shown)
VH: B1 VH with H59S
VL: B1 VL with Q88H, D91H, G92H, N93H, P94H, T95H, T99H, V101H
notes: purified scFv; also called ZZ1L3F-A02
B21: PaB670064 scFv (scFv, V domains shown)
VH: B1 VH with H59S
VL: B1 VL with Q88H, D91H, G92H, T95H, V101H
notes: purified scFv; also called ZZ1KX6-B09
B22: PaB670076 scFv (scFv, V domains shown)
VH: B1 VH with H59S
VL: B1 VL with Q88H, G92H, N93H, P94H, T99H
notes: purified scFv; also called ZZ1NHH-F09
B23: PaB670020 scFv (scFv, V domains shown)
VH: B1 VH with H59S, N101H
VL: B1 VL
notes: purified scFv; also called ZZ1IGD-D05
B24: PaB670048 scFv (scFv, V domains shown)
VH: B1 VH with H59S, N100H, N101H, V106H
VL: B1 VL
notes: purified scFv; also called ZZ1KX4-E11
B25: PaB670073 scFv (scFv, V domains shown)
VH: B1 VH with H59S
VL: B1 VL with T89H, D91H, N93H, T95H, T96H, T99H
notes: purified scFv; also called ZZ1L3F-H03
B26: PaB670085 scFv (scFv, V domains shown)
VH: B1 VH with S54H, L57H, H59S, A61H, D62H, V64H
VL: B1 VL
notes: purified scFv; also called ZZ1ODR-A02
B27: PaB670079 scFv (scFv, V domains shown)
VH: B1 VH with H59S
VL: B1 VL with T89H, N93H, P94H, V101H
notes: purified scFv; also called ZZ1OZJ-G05

Biological target: T1, recombinant biotinylated human PAR2 extracellular domain (residues 1-75), N-terminal AviTag, C-terminal Flag … (human, UniProt P55085 26-75, biotin on the AviTag (enzymatic biotinylation))
T1 construct: also called Bio-human-PAR2 ECD; human PAR2 ECD; not shown: N-terminal AviTag (Avidity LLC); C-terminal Flag and poly Histidine tags
T1 sequence (P55085 26-75): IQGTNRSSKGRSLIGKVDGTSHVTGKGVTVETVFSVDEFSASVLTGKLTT
Assay: HTRF competition with Par0067 IgG, pH 7.4, scFv
Protocol: (§1) 5 μl/well of the appropriate pH 4.44 nM Par0067 IgG solution was added to all wells of the relevant assay plate (pH 7.4 and pH 6.0).
(§2) Test scFv Preparation/Addition: [0172] a) For parallel single point HTS of crude un-purified bacterial lysate scFv samples at both pH 7.4 and pH 6.0 samples were first pre-diluted to 40% of their neat concentration using either pH 7.4 or pH 6.0 assay buffer as appropriate. Subsequently 5 μl of 40% pre-diluted sample was then transferred into the appropriate assay (pH 7.4 or pH 6.0) in order to give a final assay sample concentration of 10.0% (in the 20 μl final assay volume). The parent Par0067 scFv was included in all HTS experiments as a control as were specific pH dependent antibodies as those became available (for benchmarking). […] Duplicate 11 point 1:3 serial dilutions then were prepared on 384 well polypropylene Greiner plates in each of the two assay buffers (pH 7.4 & 6.0). 5 μl per well of each serial dilution was transferred from the relevant pH scFv dilution plate to the corresponding assay plate (pH 7.4 and pH 6.0). 5 μl of the appropriate pH assay buffer was added to the total and non-specific wells. The parent Par0067 purified scFv was included in all multipoint dose response IC₅₀ experiments as a control as were specific pH dependent purified scFv as those became available (for benchmarking).
(§3) For multipoint dose response curves % Specific Binding values were plotted versus test purified antibody concentration (scFv or IgG). IC₅₀ values were determined via a sigmoidal dose response inhibition variable slope curve fit (4 parameter logistic equation) using Graphpad Prism Software.

IC50	Binder
15.4 nM	B1
14.4 nM	B2
102 nM	B3
29.9 nM	B4
77.8 nM	B5
51.4 nM	B6
52.2 nM	B7
55.4 nM	B8
54.5 nM	B9
60.4 nM	B10
40.9 nM	B11
29.8 nM	B12
25.4 nM	B13
5.6 nM	B14
9.8 nM	B15
16.6 nM	B16
22.6 nM	B17
45.2 nM	B18
33.3 nM	B19
101 nM	B20
67.1 nM	B21
46.2 nM	B22
5.6 nM	B23
14.5 nM	B24
72.1 nM	B25
48.1 nM	B26
44.2 nM	B27

Biological target: T1, recombinant biotinylated human PAR2 …
Assay: HTRF competition with Par0067 IgG, scFv
Protocol: as §1, §2, §3

Fold IC50 (pH 6.0 v pH 7.4)	Fold IC50 pH 7.4 (Variant v Par0067)	Binder
2.7 fold	4.7 fold	B1
7.9 fold	4.4 fold	B2
5.9 fold	30.8 fold	B3
4.5 fold	9.1 fold	B4
5.8 fold	23.6 fold	B5
5.1 fold	15.6 fold	B6
9.3 fold	15.8 fold	B7
11.2 fold	16.8 fold	B8
5.2 fold	16.5 fold	B9
4.5 fold	18.3 fold	B10
3.2 fold	12.4 fold	B11
3.8 fold	9 fold	B12
3.1 fold	7.7 fold	B13
2.5 fold	1.7 fold	B14
7.4 fold	3 fold	B15
9.5 fold	5 fold	B16
3.8 fold	6.8 fold	B17
3.4 fold	13.7 fold	B18
9.6 fold	10.1 fold	B19
4.2 fold	30.7 fold	B20
4.3 fold	20.3 fold	B21
6.3 fold	14 fold	B22
3.3 fold	1.7 fold	B23
9.6 fold	4.4 fold	B24
5.9 fold	21.8 fold	B25
3.2 fold	14.6 fold	B26
11.1 fold	13.4 fold	B27

Biological target: T1, recombinant biotinylated human PAR2 …
Assay: HTRF competition with Par0067 IgG, pH 6.0, scFv
Protocol: as §1, §2, §3

IC50	Binder
41.8 nM	B1
113 nM	B2
603 nM	B3
134 nM	B4
448 nM	B5
260 nM	B6
487 nM	B7
620 nM	B8
283 nM	B9
270 nM	B10
131 nM	B11
115 nM	B12
77.9 nM	B13
14.2 nM	B14
72.5 nM	B15
158 nM	B16
85.5 nM	B17
152 nM	B18
319 nM	B19
425 nM	B20
290 nM	B21
292 nM	B22
18.5 nM	B23
139 nM	B24
428 nM	B25
155 nM	B26
490 nM	B27
